US20060275758A1, “Use of pp2a phosphatase modulators in the treatment of mental disorders” (priority 2002, published 2006)

Experiments:
GSK-3β = experiment: In vitro phosphorylation assay of GST-2E11 (KCNQ2-15b fusion protein) with recombinant GSK-3β kinase and PKA; type: biochemical; conditions: LiCl added to the kination mix (0, 8.3, 25, 75, 225 mM); autoradiography band at about 45 kD; read-out: LiCl concentration at which the phosphorylation state of GST-2E11 was reduced by 50%
Protocol: Expression and purification of the GST-2E11 fusion protein were performed as described above. Beads with bound fusion protein corresponding to 1 ml of bacterial clear lysate were washed three times in NETN and one time with HMK buffer without DTT (20 mM Tris-HCl [pH 7.5], 120 mM NaCl, 12 mM MgCl2). Beads were resuspended in 240 μl of reaction mix (24 μl of 10× HMK Buffer with 20 mM DTT, 40 units of Protein Kinase A Catalytic Subunit [PKA from bovine heart, 250 units/vial, Sigma] in 40 mM DTT, 5 μl of 24 mM ATP and 207 μl of distilled water) and incubated for 30 min at room temperature. Beads were then washed three times in NETN buffer and one time in GSK -3β reaction buffer (20 mM Tris-HCl [pH 7.5], 10 mM MgCl2, 5 mM DTT) (New England Biolabs). Beads were then resuspended in 50 μl of reaction mix (5 μl of 10× GSK-3β reaction buffer, 1 μl of [^32P]γATP 10 mCi/ml, 50 U of recombinant GSK-3β[New England Biolabs], and distilled water for a final volume of 50 μl) and incubated at room temperature for 30 min. After three washes in NETN buffer, phosphorylated proteins were boiled in 2× Sample Buffer (125 mM Tris-HCl [pH 6.8], 4% SDS, 20% glycerol, 1.4 M β-Mercapto ethanol), resolved by 10% SDS-PAGE, and visualized by autoradiography.
In this phosphorylation assay, non-radiolabeled polypeptides to be tested are incubated in the presence of GSK-3β, PKA and radioactive ATP. […]

PP2A phosphatase = experiment: In vitro dephosphorylation of phosphorylated GST-2E11 with HTB-14 whole cell extracts; type: biochemical, Human; conditions: HTB-14 cell extracts (500 μg) plus 400 μM okadaic acid, 30 min, room temperature
Protocol: In vitro phosphorylated GST-2E11 fusion protein was incubated at room temperature for 30 min with 500 μg of whole cell extracts of Human glioblastoma, astrocytoma cell line (ATCC number: HTB-14) with or without 400 μM of the PP2A phosphatase inhibitor okadaic acid (Sigma). HTB-14 whole cell extracts were prepared as follow: cells were washed three times with ice-cold TBS buffer (10 mM Tris-HCl [pH 8.0], 120 mM NaCl) and lysed at 4° C. for 30 min in EBC buffer (50 mM Tris-HCl [pH 8.0], 120 mM NaCl, 0.5% Nonidet P-40). Then the lysate was centrifugated for 10 min at 13.000×g at 4° C. to pellet cell debris. Proteins present in the supernatant were quantified by the standard Bradford's method (Bio-Rad Protein Assay). The proteins were then resolved by 10% SDS-PAGE, and visualized by autoradiography.
The phosphorylated radiolabeled GST-2E11 proteins obtained from the previous assay were incubated in the presence of HTB-14 cell extracts containing the PP2A phosphatase to determine whether PP2A is capable of dephosphorylating GST-2E11 proteins. In this experiment, a protein that is dephosphorylated by PP2A is not radioactive after incubation in the presence of HTB-14 cell extracts any more. Thus dephosphorylation of the GST-2E11 protein is monitored by disappearance of the signal visualized by autoradiography. […]

[1] = tested on: GST-2E11 recombinant protein
GST recombinant protein = molecular target: T1, GST recombinant protein (UniProt P08515 1-218 = GST); experiment: solid phase overlay assay: GST blotted on nitrocellulose, probed with 32P-labeled GST-PPP2R2C, autoradiography
T1 construct: Negative control in the overlay assay; also called Glutathione S-transferase; pGEX2TK plasmid product
Protocol: After 4.5 hr of incubation, the membrane was washed with Hyb75 buffer, 1 mM DTT, 1% (w/v) non-fat dry milk three times for 15 min at room temperature. The blots were analyzed by autoradiography.

Row | Molecule | phosphorylation of GST-2E11 with 5 µg of CREB phosphopeptides added as competitor [1] | phosphorylation with [32P]γATP, band at about 45 kD by autoradiography [1] | further results
1 | [Cl-].[Li+] [LiCl] |  |  | IC50 (GSK-3β): ~50 mM
2 | C=C1[C@@H](O)[C@@H]2O[C@]3(CC[C@H](/C=C/[C@@H](C)[C@@H]4CC(C)=C[C@@]5(O[C@H](C[C@@](C)(O)C(=O)O)CC[C@H]5O)O4)O3)CC[C@H]2O[C@@H]1[C@@H](O)C[C@H](C)[C@H]1O[C@@]2(CCCCO2)CC[C@H]1C [okadaic acid] |  |  | intensity of the GST-2E11 band versus the band of phosphorylated GST-2E11 (reference) (PP2A phosphatase): only slightly weaker
3 | PP2A phosphatase in HTB-14 whole cell extracts |  |  | dephosphorylation of 32P-phosphorylated GST-2E11 (loss of the autoradiography band), with or without okadaic acid [1]: In the line loaded with GST-2E11 fusion proteins incubated in the presence of HTB-14 cell extracts, the band had an extremely weaker intensity
4 | Protein Kinase A Catalytic Subunit (PKA from bovine heart, Sigma) | A band did still appear at a position corresponding to the size of GST-2E11, but the intensity of the band was very significantly lower | Thus the GST-2E11 protein is phosphorylated by GSK-3β and PKA in vitro | 
5 | recombinant GSK-3β kinase (New England Biolabs) | A band did still appear at a position corresponding to the size of GST-2E11, but the intensity of the band was very significantly lower | Thus the GST-2E11 protein is phosphorylated by GSK-3β and PKA in vitro | 
6 | GST-PPP2R2C radiolabeled recombinant protein (other, radiolabeled with [32P]-γATP by Protein Kinase A Catalytic Subunit, Used as the soluble probe in the solid phase overlay assay; also called PP2A/Bγ; pGEX-2TK-PPP2R2C; not shown: glutathione S-transferase encoded by the pGEX-2TK vector (Amersham Pharmacia Biotech)) MGEDTDTRKINHSFLRDHSYVTEADIISTVEFNHTGELLATGDKGGRVVIFQREPESKNAPHSQGDYDVYSTFQSHEPEFDYLKSLEIEEKINKIKWLPQQNAAHSLLSTNDKTIKLWKITERDKRPEGYNLKDEEGKLKDLSTVTSLQVPVLKPMDLMVEVSPRRIFANGHTYHINSISVNSDCETYMSADDLRINLWHLAITDRSFNIVDIKPANMEDLTEVITASEFHPHHCNLFVYSSSKGSLRLCDMPAAALCDKHSKLFEEPEDPSNRSFFSEIISSVSDVKFSHSDRYMLTRDYLTVKVWDLNMEARPIETYQVHDYLRSKLCSLYENDCIFDKFECAWNGSDSVIMTGAYNNFFRMFDRNTKRDVTLEASRESSKPRAVLKPRRVCVGGKRRRDDISVDSLDFTKKILHTAWHPAENIIAIAATNNLYIFQDKVNSDMH |  |  | binding result (GST recombinant protein): no binding (tested: 100 ng, 10 ng and 0.1 ng of GST loaded)
